# From publication PMC6318002 (Nature, 2018)
# Target: the molecule itself
# Experiment: cross-linking
protein,measurement,value
recombinant PKM2-C423/424A (enzyme) not shown,stoichiometry N,4
